Measured values as given in the RNAGym collection of RNA variant scans (doi:10.7554/elife.80360).

B1: Twister Ribozyme (parent)
chain: AACACUGCCAAUGCCGGUCCCAAGCCCGGAUAAAAGUGGAGGGGGCGG

Variants of: B1
Assay: self-cleavage, relative activity (ratio to wild type); higher = more cleavage; co-transcriptional

Going from A35U A40G to A35U A40U, the self-cleavage rises from 0.133 to 0.253.

First: A34G G41C
Second: U31C G44C
The self-cleavage of the first is lower: 0.12 for the first, 0.976 for the second.

First: U31C G44A
Second: U31C C46A
The self-cleavage of the first is higher: 1.1 for the first, 0.733 for the second.

Going from U31C C46U to U31C C46G, the self-cleavage rises from 0.788 to 0.923.

Going from G36A G41A to G36A G41C, the self-cleavage rises from 0.13 to 0.133.

Going from U31G G43U to U31G G43C, the self-cleavage falls from 0.467 to 0.18.

Compared with U31G A34U, U31G A34G is lower in self-cleavage: 0.904 for the first, 0.894 for the second.

First: A33U G36C
Second: A34U U37A
The self-cleavage of the first is lower: 0.174 for the first, 0.368 for the second.

Going from A34U U37C to A34C G47C, the self-cleavage rises from 0.155 to 0.177.

First: A32U G41A
Second: A32U C46U
The self-cleavage of the first is lower: 0.488 for the first, 1.02 for the second.

Going from U31C G42U to A32U G42C, the self-cleavage rises from 0.407 to 0.437.

Going from A32U G42A to A34G C46G, the self-cleavage rises from 0.324 to 0.815.

First: G36A G38U
Second: G36A G38A
The self-cleavage of the first is lower: 0.193 for the first, 0.359 for the second.

Going from A32U A33C to A32U A33U, the self-cleavage rises from 0.895 to 0.938.

Going from A32C G36A to A32C G36C, the self-cleavage falls from 0.473 to 0.283.

Compared with U31C A40G, U31C A40C is higher in self-cleavage: 0.0669 for the first, 0.249 for the second.

Going from U31C G43A to U31C G43C, the self-cleavage falls from 0.323 to 0.194.

First: A32U G36C
Second: A32U G36U
The self-cleavage of the first is higher: 0.435 for the first, 0.148 for the second.

Compared with A33C G47C, U31G G36U is higher in self-cleavage: 0.274 for the first, 0.374 for the second.

First: A32C A40C
Second: A32C G47U
The self-cleavage of the first is lower: 0.159 for the first, 0.783 for the second.

Compared with A32C G47A, A32C G47C is lower in self-cleavage: 0.764 for the first, 0.556 for the second.

First: A32G A33G
Second: A34C G41A
The self-cleavage of the first is higher: 0.654 for the first, 0.133 for the second.

Going from A35U G47C to A34G A40C, the self-cleavage falls from 0.694 to 0.198.

First: A34G G36C
Second: A33C G43A
The self-cleavage of the first is higher: 0.179 for the first, 0.17 for the second.

First: A34G A35C
Second: U31G G44A
The self-cleavage of the first is lower: 0.742 for the first, 0.825 for the second.

Compared with U31G G44C, A33G G48C is higher in self-cleavage: 0.974 for the first, 1.07 for the second.

Compared with A33G G48A, A33G G48U is higher in self-cleavage: 0.856 for the first, 0.903 for the second.

Going from A33C G39A to U31G G38C, the self-cleavage rises from 0.438 to 0.894.

Compared with G36A G39U, A32G U37C is higher in self-cleavage: 0.12 for the first, 0.844 for the second.

Compared with A32G U37A, A32U G44A is higher in self-cleavage: 0.752 for the first, 0.919 for the second.

Compared with A32U G44U, A34G G44A is lower in self-cleavage: 0.885 for the first, 0.809 for the second.

First: U31G A40U
Second: A32U G48A
The self-cleavage of the first is lower: 0.199 for the first, 0.942 for the second.

Going from G36A G43C to A33U G39U, the self-cleavage rises from 0.152 to 0.162.

Going from A33U G39C to A33U G39A, the self-cleavage rises from 0.0973 to 0.512.

First: A33U U37C
Second: U31C G41C
The self-cleavage of the first is higher: 0.379 for the first, 0.306 for the second.

Compared with U31C G41A, U31C is higher in self-cleavage: 0.539 for the first, 1.01 for the second.

Compared with U31G, A35U G42A is lower in self-cleavage: 0.933 for the first, 0.376 for the second.

Going from A35U G42C to A33U A34G, the self-cleavage rises from 0.539 to 0.76.

Compared with A33G G36C, A33C G48U is higher in self-cleavage: 0.303 for the first, 1.04 for the second.

Compared with A32G A34C, A34G G43U is lower in self-cleavage: 0.137 for the first, 0.133 for the second.

Going from A34G G43C to A34G G43A, the self-cleavage falls from 0.162 to 0.136.

Going from A32U G45C to A32U G45A, the self-cleavage rises from 0.506 to 0.823.

First: U31C A34G
Second: A32C G42U
The self-cleavage of the first is higher: 0.664 for the first, 0.266 for the second.

First: A34U G43U
Second: A34U G43C
The self-cleavage of the first is higher: 0.193 for the first, 0.186 for the second.

Going from U31G G47C to U31G G47A, the self-cleavage rises from 0.755 to 0.782.

Compared with A33C, A33U is higher in self-cleavage: 0.975 for the first, 0.998 for the second.

Going from A33G to A32C A35U, the self-cleavage rises from 0.96 to 1.05.

First: A32C A35C
Second: A32G A35C
The self-cleavage of the first is lower: 0.911 for the first, 0.914 for the second.

First: A32G G41U
Second: A32G G41A
The self-cleavage of the first is higher: 0.609 for the first, 0.518 for the second.

First: A32G G41C
Second: A33G G41C
The self-cleavage of the first is higher: 0.211 for the first, 0.197 for the second.

First: A35U C46G
Second: A35U C46A
The self-cleavage of the first is lower: 0.927 for the first, 1.04 for the second.

First: A35U C46U
Second: A35U G41C
The self-cleavage of the first is higher: 0.894 for the first, 0.206 for the second.

Going from A35U G41U to A33C U37A, the self-cleavage falls from 0.693 to 0.447.

First: A34U G48A
Second: A34U G48U
The self-cleavage of the first is lower: 0.703 for the first, 0.811 for the second.

Compared with A35U G43C, A35U G43A is higher in self-cleavage: 0.208 for the first, 0.25 for the second.

First: A35U G43U
Second: A33G C46A
The self-cleavage of the first is lower: 0.352 for the first, 0.894 for the second.

Going from A33G C46U to G36A G42U, the self-cleavage falls from 0.851 to 0.128.

First: G36A G42C
Second: A32C U37A
The self-cleavage of the first is lower: 0.168 for the first, 0.732 for the second.

Going from A32C U37C to A35C G42C, the self-cleavage falls from 0.494 to 0.381.

First: A33U G38A
Second: A33U G38C
The self-cleavage of the first is higher: 0.946 for the first, 0.77 for the second.

Compared with G36C C46G, G36C C46A is lower in self-cleavage: 0.45 for the first, 0.367 for the second.

Compared with A32C G38U, U31G A33C is higher in self-cleavage: 0.723 for the first, 1.03 for the second.

Going from U31G A33U to A32C G39U, the self-cleavage falls from 0.876 to 0.235.

First: A32C G39A
Second: A32C G39C
The self-cleavage of the first is higher: 0.586 for the first, 0.079 for the second.

First: A35G G43A
Second: U31G C46G
The self-cleavage of the first is lower: 0.152 for the first, 0.852 for the second.

Compared with U31G C46U, A35C G45C is lower in self-cleavage: 0.928 for the first, 0.472 for the second.

Going from A34U G44U to A33G A34C, the self-cleavage falls from 0.771 to 0.108.

Compared with A33G A34U, A33G A34G is lower in self-cleavage: 0.461 for the first, 0.253 for the second.

Compared with A33U G43A, A33U G43C is lower in self-cleavage: 0.233 for the first, 0.101 for the second.

Compared with A35C G44A, A35C G44U is higher in self-cleavage: 0.87 for the first, 0.976 for the second.

Compared with A33U G42U, A33U G42C is higher in self-cleavage: 0.244 for the first, 0.323 for the second.

Going from A33U G42A to A33G G42C, the self-cleavage falls from 0.283 to 0.268.

First: A33G G42U
Second: A35U G48U
The self-cleavage of the first is lower: 0.17 for the first, 1.17 for the second.

First: A35U G48C
Second: A35G U37A
The self-cleavage of the first is higher: 1.07 for the first, 0.574 for the second.

Going from A35C G36C to A33C G38C, the self-cleavage rises from 0.382 to 0.918.

Going from U31G G42C to U31G G42A, the self-cleavage falls from 0.699 to 0.497.

Going from U31A U37A to U31A U37C, the self-cleavage falls from 0.721 to 0.591.

Compared with U31A U37G, A34U A40G is lower in self-cleavage: 0.659 for the first, 0.122 for the second.

Going from A34U A40U to A34U A40C, the self-cleavage falls from 0.141 to 0.137.

Going from A32U G43C to G36A A40G, the self-cleavage rises from 0.139 to 0.144.

First: G36A A40U
Second: A34G G47U
The self-cleavage of the first is lower: 0.124 for the first, 0.553 for the second.

Going from A34G G47C to A35C A40G, the self-cleavage falls from 0.193 to 0.18.

Compared with A35C A40U, A35U G38A is higher in self-cleavage: 0.142 for the first, 0.925 for the second.

For A35U G38U, the self-cleavage was 0.942.
